Values quoted from earlier work as cited in paper PMC3044768.
Where two headings read alike, the source gives them in different places.

How the values were obtained:
[1] = biological target: SARS 3CLpro 3CLpro (Severe acute respiratory syndrome coronavirus) (UniProt P0C6X7); conditions: cited from earlier work
[2] = biological target: SARS 3CLpro 3CLpro (Severe acute respiratory syndrome coronavirus) (UniProt P0C6X7); conditions: cited from earlier work; remark: listed apart in the source

SARS 3CLpro 3CLpro (from UniProt P0C6X7)
Kd [1]: 5.2 µM
Kd [2]: 12.7 µM
